Source: doi:10.1101/2025.04.23.650173 (bioRxiv, 2025)
Like-named read-outs stand apart in the source and are kept apart here.

Assays:
AUC [1] = molecular target: the molecule itself; experiment: AUC
AUC [2] = molecular target: the molecule itself; experiment: AUC; remark: listed apart in the source

B1: wild type murine CXCL4 (natural protein, mouse, UniProt Q9Z126 30-105, looked up)
chain: VTSAGPEESDGDLSCVCVKTISSGIHLKHITSLEVIKAGRHCAVPQLIATLKNGRKICLDRQAPLYKKVIKKILES
stoichiometry N (AUC [1]): 2 | stoichiometry N (AUC [2]): 4
